From the supplement of paper PMC9112550, “Optimization of the antimicrobial peptide Bac7 by deep mutational scanning” (BMC Biology, 2022)

test system: Escherichia coli TOP10; experiment: shrunken log2 fold change of peptide-encoding DNA abundance (4.5 h post-induction vs induction); higher = less antimicrobial activity (less host growth inhibition); settings: time post-induction: 4.5 h; library: site-saturation at positions 5, 18, 19, 20
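Also: peptides expressed intracellularly from a pBAD plasmid library in pooled LB shake-flask culture, induced with 0.3% L-arabinose, DNA abundance read by NGS, three biological replicates, DESeq2 with apeglm shrinkage.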

Sequence	shrunken log2 fold change
RRIRMRPPRLPRPRPRPHKLPRP	-0.0702
RRIRKRPPRLPRPRPRPRLLPRP	0.517
RRIRYRPPRLPRPRPRPDKCPRP	-0.107
RRIRWRPPRLPRPRPRPTSRPRP	0.0324
RRIRDRPPRLPRPRPRPPISPRP	0.024
RRIRRRPPRLPRPRPRPHFGPRP	0.111
RRIRPRPPRLPRPRPRPAQQPRP	0.263
RRIRIRPPRLPRPRPRPSNCPRP	-0.24
RRIRMRPPRLPRPRPRPGETPRP	0.0143
RRIRFRPPRLPRPRPRPQNRPRP	-0.536
RRIRCRPPRLPRPRPRPYDLPRP	-0.325
RRIRIRPPRLPRPRPRPQEKPRP	0.0553
RRIRERPPRLPRPRPRPDCGPRP	0.0191
RRIRTRPPRLPRPRPRPHVVPRP	-0.0414
RRIRTRPPRLPRPRPRPKYQPRP	-0.68
RRIRFRPPRLPRPRPRPQPNPRP	-0.0249
RRIRLRPPRLPRPRPRPEMRPRP	0.0659
RRIRVRPPRLPRPRPRPWTWPRP	-0.135
RRIRFRPPRLPRPRPRPSKFPRP	-0.434
RRIRKRPPRLPRPRPRPVHEPRP	0.325
RRIRPRPPRLPRPRPRPFRHPRP	-0.191
RRIRRRPPRLPRPRPRPDQNPRP	0.327
RRIRFRPPRLPRPRPRPYDIPRP	-0.0365

Sequence	shrunken log2 fold change
RRIRYRPPRLPRPRPRPPYKPRP	-0.23
RRIRERPPRLPRPRPRPMITPRP	-0.0683
RRIRDRPPRLPRPRPRPHHVPRP	-0.145
RRIRLRPPRLPRPRPRPCHKPRP	-0.278
RRIRPRPPRLPRPRPRPERLPRP	0.0284
RRIRFRPPRLPRPRPRPHVSPRP	-0.135
RRIRHRPPRLPRPRPRPPNMPRP	-0.0135
RRIRCRPPRLPRPRPRPSHTPRP	-0.283
RRIRWRPPRLPRPRPRPEYGPRP	0.222
RRIRGRPPRLPRPRPRPQYLPRP	0.0284
RRIRARPPRLPRPRPRPTYPPRP	-0.0587
RRIRYRPPRLPRPRPRPWVKPRP	0.0136
RRIRPRPPRLPRPRPRPVYTPRP	-0.234
RRIRMRPPRLPRPRPRPPVAPRP	1.3
RRIRFRPPRLPRPRPRPNGPPRP	-0.0934
RRIRPRPPRLPRPRPRPCDTPRP	-0.193
RRIRVRPPRLPRPRPRPAPHPRP	0.286
RRIRVRPPRLPRPRPRPEDIPRP	-0.311
RRIRNRPPRLPRPRPRPLRDPRP	0.521
RRIRCRPPRLPRPRPRPCFLPRP	-0.622
RRIRTRPPRLPRPRPRPAGGPRP	0.304
RRIRERPPRLPRPRPRPVDKPRP	-0.0448
RRIRLRPPRLPRPRPRPVCLPRP	-0.0821

Sequence	shrunken log2 fold change
RRIRGRPPRLPRPRPRPYQNPRP	-0.0136
RRIRYRPPRLPRPRPRPNISPRP	-0.513
RRIRTRPPRLPRPRPRPHIPPRP	-0.769
RRIRERPPRLPRPRPRPKMFPRP	-0.000277
RRIRCRPPRLPRPRPRPKLHPRP	-0.113
RRIRIRPPRLPRPRPRPYEYPRP	-0.0772
RRIRLRPPRLPRPRPRPKNFPRP	0.492
RRIRWRPPRLPRPRPRPSFIPRP	-0.545
RRIRWRPPRLPRPRPRPFISPRP	-0.174
RRIRYRPPRLPRPRPRPCYLPRP	-0.0778
RRIRWRPPRLPRPRPRPMEMPRP	0.0108
RRIRNRPPRLPRPRPRPHPFPRP	-0.0852
RRIRPRPPRLPRPRPRPDGKPRP	0.25
RRIRQRPPRLPRPRPRPSKMPRP	-0.0686
RRIRMRPPRLPRPRPRPTVLPRP	0.477
RRIRPRPPRLPRPRPRPSDIPRP	-0.417
RRIRIRPPRLPRPRPRPASMPRP	-0.281
RRIRMRPPRLPRPRPRPPWAPRP	0.911
RRIRIRPPRLPRPRPRPALDPRP	1.45
RRIRQRPPRLPRPRPRPNAKPRP	-0.0176
RRIRDRPPRLPRPRPRPLSWPRP	0.488
RRIRWRPPRLPRPRPRPHEWPRP	0.0987
RRIRFRPPRLPRPRPRPPTAPRP	0.429

Sequence	shrunken log2 fold change
RRIRWRPPRLPRPRPRPYNRPRP	-1.09
RRIRSRPPRLPRPRPRPNGTPRP	-0.188
RRIRSRPPRLPRPRPRPYIMPRP	-0.845
RRIRGRPPRLPRPRPRPDATPRP	4.21
RRIRCRPPRLPRPRPRPHIYPRP	-0.954
RRIRRRPPRLPRPRPRPWIIPRP	-0.021
RRIRPRPPRLPRPRPRPSKQPRP	-0.116
RRIRKRPPRLPRPRPRPVRWPRP	0.809
RRIRERPPRLPRPRPRPTMQPRP	0.0612
RRIRQRPPRLPRPRPRPPVRPRP	0.739
RRIRIRPPRLPRPRPRPVPYPRP	-0.556
RRIRYRPPRLPRPRPRPGTFPRP	-0.53
RRIRSRPPRLPRPRPRPAGAPRP	0.36
RRIRGRPPRLPRPRPRPNCNPRP	0.199
RRIRSRPPRLPRPRPRPQPKPRP	0.526
RRIRDRPPRLPRPRPRPMKKPRP	0.0162
RRIRDRPPRLPRPRPRPQFSPRP	0.0361
RRIRRRPPRLPRPRPRPAWGPRP	0.508
RRIRHRPPRLPRPRPRPVLVPRP	-0.0156
RRIRCRPPRLPRPRPRPFKKPRP	-0.319
RRIRFRPPRLPRPRPRPKHKPRP	-0.265
RRIRVRPPRLPRPRPRPEDDPRP	-0.17
